Data: the nanobody polyreactivity screen of Harvey et al. (2022)

Assay: yeast display, Sf9 membrane polyspecificity reagent, FACS + sequencing; frameworks hold sequencing errors
How it was run: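 After 36–48 hours of galactose induction, yeast (Saccharomyces cerevisiae BJ5465) displaying a synthetic nanobody library were stained at 4 °C for 1 hour with 10% biotinylated, detergent-solubilized Sf9 membrane reagent. Streptavidin microbeads enriched the stained cells before FACS sorting into low and high (top ~1%) gates on anti-HA and streptavidin fluorescence. Each clone's polyreactivity label reflects its gate of origin.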

Row | Sequence | polyreactivity (PSR sort gate)
1 | QVQLVESAGGLVQAGGSLRLSCAASGFIFVKYAMGWDRQAPGKERELVAAISSRGGITYYADSVKGRYTISRDNAENTVYLQMISLKPADTAVYYCNTVSRGYRGNYWGQGTQVTVSS | low polyreactivity
2 | QVQLVESGVGLVQARGSLRLSCAASGYIFTIYAMGWYRHAPGKERELVAAITWSGATTYYADSVKGRFTISRDNAKNTVYLQMNILKPEDTAVYYCNADYWHYYEDYDSWGQGTQVTVSS | low polyreactivity
3 | QVQLVQSGGGLVQAGGSLRLSCAASGSTNRYYAMGLYRQAPGKERELVAAITKSGGSTYYADSVKGRFTISRDNAKNTVYLQMNSLKPEDTAVVYCAAVRGWYSPALSEHDYWGQGTQVTVSS | low polyreactivity
4 | QVQLVESGGGLVQAGGSLRLSCAASGRIFQYYTIGWYRQATGKERELVAAIRSSGGITYYADSVKGRFTISRDNAKYTVYLQMNSLKPEDTAVYYCAARWYRSKYDYWGQGTQVTVSS | high polyreactivity
5 | QVQLVESGGGLVQAGGSLRLSCAASGRTFTFYTMGWDRQAPGKERELVARITGGGSTYYADSVKGRFTISRDNAKNTVYLQMNSLKPEDTAVYYCAAASGTKRLYRGTRGDYWGQGTQVTVSS | low polyreactivity
6 | QVQLVESGGGLVQAGGSHRLSCAASGSIFRSNTMGWYRQAPGKERELVAAITWRRGSTYYADSVKGRFTISRDNAKNTVYLQMNSLKPEDTAVYDCNALYVSRDDYWGQGTQVTVSS | high polyreactivity
7 | QVQLVESGAGLLQAGGSLRLSCAASGITLRRNTMGWYRQAPGKERELVAAITRSGGSTYYADSVKGRVTISRDNAKNTVYLQINSLKPEVTAVYYCAEGPSYGGPSHVYWRQGTQVTVSS | high polyreactivity
8 | QVQLVESGGGLVQAGGSLRLSCAASGSIFYYNVMGWYRQAPGKERELVAAIDIDGSTYYADSVKGRFTISRDNAKNTVYLQMNSLKPEDTAVYYCNAQAPYWFSFYSDHKYDYWGQGTQVTVSS | low polyreactivity
9 | QVQLVESGGGLVQAGGSLRLSCAASGRTFRWNAMGWSRQAPGKERELVASISSGGRTNYADSVKGRFTLSRDNAKNTVYLQMNSLKPEDTAVYYCAKRVSWPQLYDYWGQGTQVTVSS | high polyreactivity
10 | QVQLVESGGGLVQAGGSLRLSCAASGRIFGYTMGWYRQAPGKERELVAAISKSGGSTYYADSVKGRFTISRDNAMNTVYLQMNSLKPEDTAVYYCNKPQRILYDYWGQGTQVTVSS | high polyreactivity
11 | QVQLVESGGGLVQAGGSLRLSSAASGRIFRINAMGWYRQAPGKERELVADITSGGSTNYADSVKGRFTISRDNAKNTVYLQMNSLKPEDTAVYYCAAAYVTYRTRLDYWGQGTQVTVSS | low polyreactivity
12 | QVQLVESGGGLVQAGGSLRLSCAASGRIFQKYAMGWYRQAPGKERELVAAITTSGGSTYYADSVKGRFTISRDNAKNTVYLQMNSLKPEDTAVYYCAAKSTLSKEGYWGQGTHVTVSS | high polyreactivity
13 | QVQLVESGGGLVQAGGSLRLTCAASGRNFQVYAMGWYRQAPGKERELVAGITRAGSTYYADSVKGRFTISRDNAKNTVYLQLNSLKPEDTAVYYCAASRWHGYNYWGQGTQVTVSS | high polyreactivity
14 | QVQLVESGGGLVQAGGSLRLSCAASGITFYWYAMGWYRQAPGKERELVARISSTGGSTYYADSVKGRFTISRDNAKNTVYLQLNSLKPEDTAVYYCNAVGRLYLYGSWGQGTQVTLSS | high polyreactivity
15 | QVHLVESGGGLVQAGGSLRLTCAASGSIFTVYALGWYRQAPGKERELVAAITRNGGRTYYADSVKGRFTISRDNAKNTVYLQMNSLIPEDTAGYYCAAPGLYSRLDYWGQGTQVTVSS | high polyreactivity
16 | QVQLVESGGGLVQAGGSLRLSCAASGSIFFKYTMGWYRQAPGKERELVAAITYTGGRTYYADSVKGRFTISRDNAKNTVYLQMNSLKPEDTAVYFCNKVTPRQGNRLAGVSGYDYWGQGTQVTVSS | high polyreactivity

Row | Sequence | polyreactivity (PSR sort gate)
17 | QDQLVDSGGGLVQAGGSLRLSCAASGYTFWDYAMGWYRQAPGKEREFVAGISFSDGGTYYADSVKGRFTISRDNAKNTVYLQMNSLKPEDTAVYYCAATYPYSWVYSGYYYWGQGTQVTVSS | low polyreactivity
18 | QVQLQEGGGGQVQAGGSLRLSCAASGYITNGDVMGWSRQAPGEERELVASSGLDATTNYADSVKGRFTISRDNAKMTVYLQMNSLKPEDTAVYYCAADVGSGVLCGYWGQGTQMTVSS | high polyreactivity
19 | QVQLVESGGGLVQAGGSLRLSCAASGRTFQGKAMGWYRQAPGKERELVAAISSSGGRTYYADSVKGRFTISRDNAKNTVYLQMNSLKPVDTSVYYCAARNYFWGQGTQVTVSS | low polyreactivity
20 | QVQLVESGGGLVQAGGSLRLSCAASGRTFRTYTMGWYRQAHGKERELVAAITSTGSTYYADSVKGRFTISRDNAMNTVYLQMNSLKPEDTAVYYCNVGRRLRPYRCTRPNLEYYYWGQGTQVTVSS | high polyreactivity
21 | QVQLVESGGGLVQAGGSLRLSCAASGMIFGYYVMGWYRQAPGKERELVAAINSGGNTNYADSVKGRFTISRDNAKNTVYLQMNSLKPEDTAVYYCNRSYDSTDIREDYWGQGTQVTVSS | low polyreactivity
22 | QVQLVESGGGLVQAGGSLRLSCAASGRIFGSYAMGWYRQAPGKERELVAVITKRGDSTYYADSVKGRFTISRDNAKNTVYLQMNSLKPEDTAVYYCNAGRVYYSNGYDYWGQGSQVTVSS | low polyreactivity
23 | QVQLVESGGGLVQAGGSLRLSCAASGSTFTTYAMGWYRQAPGKERELVAAISTNGGRTFYADSVKGRFTISRDNAKNTVYLQMISLKPEDTAVYYCAAEYGLYAPGYYYWGQGTQVTVSS | low polyreactivity
24 | QVQLVESGGGLVQAGGSLRLSCAASGIISRWYAMGWYRQAPGKERELVAAIRWSGGRTYYADSVKGRFTISRDNAKNTVYLQMNSLKPEDTAVYYCAADVRQRGIYGPGPHYYWGQGTQVTVSS | low polyreactivity
25 | QVQLVESGGGLVQAGGSLRLSCAASGITFGYYAMGWYRQAPGKERELVAAISNSGRTYYADSVKGRFTISRDNAKNTVYLQMNILKPEDTAVYYCAAEDAYYDFYYWGQGTKVTVSS | low polyreactivity
26 | QVQLVESGGGLVQAGGSLRLSCAASGFIFGRYAMGWDREAPGKERELVAGIRSSGGSTYYADSVKGRFTISRDNAKNTVYLQMNSLKPEDTAVYYCAARTYGQSLDYWGQGTQVTVSS | high polyreactivity
27 | QVQLVESGGGLVQAGGSLRLSCAASGRTFGIYAMGWYRQAPGKERELVAAISCGGGSTYYADSVKGRFTISRDNAKNTVYLQMNSLKPEYTAVYYCAAQAQWDGQMDYWGQGTQVTVSS | low polyreactivity
28 | QVQLVESGGGLVQAGGSLRLSCAASGRIFSYYAMGWYRQAPGKERELVAAITRRDGRTYYADSVKGRFTISRDNAKNTVYLQMNSLKPEDTAVYYCAAYLAASYDWGQGTQVTVSS | low polyreactivity
29 | QVQHDQSGGGLVQAGGSLRLSCAASGRTFKPYVMGRYREAPGKERELVAAISSRGDITYYADSVKGRFTITRDNAKNTVYLQMNSLKPEDTAVYYCNAGPAVRSAYSTPYYDYWGQGTQVTVSS | low polyreactivity
30 | QVQLVESGGGLVQAGGSLRLSCAASGSTFFHYVMGWYRQAPGKERELVAAIRWSGGRTRYADSVKGRFTISRDNAKNTVYLQMNSLKPEDTAVYYCAAYRLSKPFYKYDYWGQGTQVTVSS | high polyreactivity
31 | QVHLVESGGGLVQAGGSLRLSCAASGSTFFIYTMGWYRQAPGKEREFVAAISWTGGRTYYADSVKGRFTISRDNAKNTVFLQMNSLKPEDTAVYYCAARYKYYSYDYWGQGTQVTVSS | high polyreactivity
32 | QVQLVESGGGLVQAGGSLRLSCAASGRTFNTYDMGWYRQAPGKERELVAAITSRGGTTYYADSVKGRFTITRDNAKNTVYLQMNSLKPEDTAVSYCAADYYSWDYQYDYDYWGQGTQVTVSS | low polyreactivity
